Measured values as given in patent US20170058007A1 (University of California, published 2017).

Biological target: the molecule itself
Experiment: AFM imaging on mica (self-association, not fibrils)
Protocol: Pieces of 8.0 mm×8.0 mm×0.5 mm muscovite mica were cut and mounted on standard microscope slides using composite epoxy glue (5 Minute Epoxy, ITW Performance Polymers and Fluids, FL. USA). Before protein deposition, the top layer(s) of mica was peeled mechanically to expose fresh (0001) surfaces. For SBAFP-m1 or wild type WT SBAFP, 20 μl of sample in Tris buffer (100 mM, pH8.0) were deposited on the freshly exposed mica(0001) surfaces. After 5 min incubation, the surfaces were washed three times with 200 μl Tris buffer (100 mM, pH 8.0) to remove weakly bound proteins and fibrils. The samples were immediately imaged in the Tris buffer. Sample preparation for RGAFP-m1 or WT RGAFP followed similar protocols except for the surface coating and imaging medium. The freshly cleaved mica(0001) surfaces were coated with poly-L-Lysine, by dropping 80 μl 0.1% (w/v) poly-L-Lysine (Sigma P8920, MW 150-300 kDa) onto the surface, incubating for 5 min, then washing with MilliQ water. The surfaces were dried with clean air before protein deposition. The samples were imaged under ambient conditions.
The formation of fibers by SBAFP-m1 was analyzed after 48 h and 3 weeks of incubation at 37° C. […] The expansion (FIG. 10A inset) allows an accurate height determination of 1.5-3 nm, but predominantly between 2.5 and 3 nm. […]

B1: WT SBAFP (other)
chain: DGTCVNTNSQITANSQCVKSTATNCYIDNSQLVDTSICTRSQYSDANVKKSVTTDCNIDKSQVYLTTCTGSQYNGIYIRSSTTTGTSISGPGCSISTCTITRGVATPAAACKISGCSLSAM
notes: Gene in pET20b from the Davies lab, expressed in E. coli; also called wild type spruce budworm antifreeze protein; isozyme 501
binding result: binds
